This passage reports Kd results from patent publication CN110404066A (QILU PHARMACEUTICAL CO LTD, dated 2019).

The Kd is the free concentration of one partner at which half of the binding sites on the other are occupied at equilibrium, for simple one-to-one binding.

Test [1] deals with T1, PD-1抗原 (UniProt Q15116 25-167, limits assumed). Kind of test: SPR (Biacore T200), antibody captured by anti-human Fc on CM5, PD-1 antigen as analyte, mean of two repeats. In general terms: Surface plasmon resonance follows binding to a sensor surface in real time, without labels.
For test [2], the target named is T1, PD-1抗原. Nature of the test: SPR (Biacore T200), antibody captured by anti-human Fc on CM5, PD-1 antigen as analyte, 1:1 model, second repeat.
For test [3], the target named is T1, PD-1抗原. Nature of the test: SPR (Biacore T200), antibody captured by anti-human Fc on CM5, PD-1 antigen as analyte, 1:1 model, first repeat.

T1 sequence (Q15116 25-167 limits assumed): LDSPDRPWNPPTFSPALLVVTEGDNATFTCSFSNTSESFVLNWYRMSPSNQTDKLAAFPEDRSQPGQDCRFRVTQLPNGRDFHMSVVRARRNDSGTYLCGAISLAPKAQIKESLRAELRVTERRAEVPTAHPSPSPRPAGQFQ

B1: 抗人PD-1的单克隆抗体ZMR01 (antibody, V domains shown)
VH: QVQLVQSGAEVKKPGASVKVSCKASGYTFTNYWIHWVRQAPGQGLEWMGEIDPYDSYTNYNQKFKGRVTMTVDKSTSTVYMELSSLRSEDTAVYYCARPGFTYGGMDFWGQGTLVTVSS
VL: DIQMTQSPSSLSASVGDRVTITCKSSQSLFNSGNQKNYLAWYQQKPGKVPKLLIYGASTRDSGVPYRFSGSGSGTDFTLTISSLQPEDVATYYCQNDHYYPYTFGGGTKVEIK
For the molecule B1, the dissociation constant Kd came out at 1.87 nM in test [1], 1.82 nM in test [2] and 1.91 nM in test [3].
